The text below walks through data of PMC9365917, “Modulation of osteogenic differentiation by Escherichia coli-derived recombinant bone morphogenetic protein-2” (AMB Express, 2022).

T1: BMP receptor type 2 (UniProt Q13873 27-150)
T1 construct: BMP receptor type 2 (BMPR2); No catalogue number is printed; also called BMPR2; source: bought: Thermo Fisher Scientific Co
T1 sequence (looked up): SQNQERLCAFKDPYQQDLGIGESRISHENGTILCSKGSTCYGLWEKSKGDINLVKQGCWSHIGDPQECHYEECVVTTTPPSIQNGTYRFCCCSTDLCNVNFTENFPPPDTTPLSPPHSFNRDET

B1: BMP receptor type 1B (receptor, UniProt O00238 14-126, looked up)
chain: KKEDGESTAPTPRPKVLRCKCHHHCPEDSVNNICSTDGYCFTMIEEDDSGLPVVTSGCLGLEGSDFQCRDTPIPHQRRSIECCTERNECNKDLHPTLPPLKNRDFVDGPIHHR
notes: BMP receptor type 1B (BMPR1B); No catalogue number is printed; also called BMPR1B; source: bought: Thermo Fisher Scientific Co
B2: Chinese hamster ovary cell-derived recombinant human bone morphogenetic protein-2 (ligand, UniProt P12643 283-396, looked up)
chain: QAKHKQRKRLKSSCKRHPLYVDFSDVGWNDWIVAPPGYHAFYCHGECPFPLADHLNSTNHAIVQTLVNSVNSKIPKACCVPTELSAISMLYLDENEKVVLKNYQDMVVEGCGCR
modifications: N-glycan (position not given)
notes: Bone morphogenetic protein 2 (BMP-2), human, CHO cell-derived, glycosylated; also called C-rhBMP-2; CHO cell-derived rhBMP-2; source: CHO cell-derived; bought: National Institute for Biological Standards and Control
B3: Escherichia coli-derived recombinant human bone morphogenetic protein-2 (ligand, UniProt P12643 283-396, looked up)
chain: B2 chain
notes: Bone morphogenetic protein 2 (BMP-2), human; no glycans; Not glycosylated (made in E. coli); an added N-terminal methionine is not spoken of; also called E-rhBMP-2; E. coli-derived rhBMP-2; source: E. coli-derived; provided by Daewoong Pharmaceutical Co., Ltd

Assay in all cases: SPR; Biacore T200; rhBMP-2 (ligand) immobilised by EDC/NHS coupling, target level 500 RU, in 10 mM sodium acetate pH 6.0; receptors as analytes, 10-2000 nM, 30 µL/min, 120 s association and 120 s dissociation; 1:1 binding model
What all share (conditions): both partners purified
Background: SPR reads the build-up and loss of mass on a sensor chip optically.

Test [1] addresses B3.
The target in test [2] is B2.
The target of another test is T1, BMP receptor type 2.

In the case of B1, the Kd is 194 nM in test [1] and 74.3 nM in test [2]. Also, the kon turned out to be 1960 M⁻¹ s⁻¹ in test [1] and 3470 M⁻¹ s⁻¹ in test [2].
In the test with BMP receptor type 2, B2 had a Kd of 141 nM.
In turn, B3 had a Kd with BMP receptor type 2 of 140 nM.

By Kd is commonly meant the free concentration of one partner at which half of the binding sites on the other are occupied at equilibrium, for simple one-to-one binding. A word on the kon: it is a measure of how fast the partners come together.
